Data published in paper PMC10527347 (Journal of molecular biology, 2023).
Numbering of substitutions follows the chain as printed. Numbers in names are those of the source. One block for each binder: values may come before it.

Tests used:
[1] = biological target: Hsp90Ec wild-type (E. coli, UniProt P0A6Z3 1-624); assay: BLI
[2] = biological target: Hsp90Ec K492C (E. coli, UniProt P0A6Z3 1-624, K492C); assay: pull-down
[3] = biological target: Hsp90Ec K502C (E. coli, UniProt P0A6Z3 1-624, K502C); assay: pull-down
[4] = biological target: Hsp90Ec K71C (E. coli, UniProt P0A6Z3 1-624, K71C); assay: pull-down
[5] = biological target: Hsp90Ec K103C (E. coli, UniProt P0A6Z3 1-624, K103C); assay: pull-down
[6] = biological target: Hsp90Ec K99C (E. coli, UniProt P0A6Z3 1-624, K99C); assay: pull-down
[7] = biological target: Hsp90Ec K45C (E. coli, UniProt P0A6Z3 1-624, K45C); assay: pull-down
[8] = biological target: Hsp90Ec K354C (E. coli, UniProt P0A6Z3 1-624, K354C); assay: pull-down
[9] = biological target: T1, Hsp90Ec N347C (E. coli, UniProt P0A6Z3 1-624, N347C); assay: pull-down
[10] = biological target: Hsp90Ec L493C (E. coli, UniProt P0A6Z3 1-624, L493C); assay: pull-down
[11] = biological target: Hsp90Ec K560C (E. coli, UniProt P0A6Z3 1-624, K560C); assay: pull-down
[12] = biological target: T2, Hsp90Ec N350C (E. coli, UniProt P0A6Z3 1-624, N350C); assay: pull-down
[13] = biological target: T3, Hsp90Ec K199C (E. coli, UniProt P0A6Z3 1-624, K199C); assay: pull-down
[14] = biological target: Hsp90Ec Q358C (E. coli, UniProt P0A6Z3 1-624, Q358C); assay: pull-down
[15] = biological target: T2, Hsp90Ec N350C; assay: cross-linking
[16] = biological target: T1, Hsp90Ec N347C; assay: cross-linking
[17] = biological target: T1, Hsp90Ec N347C; assay: cross-linking; remark: listed apart in the source
[18] = biological target: T3, Hsp90Ec K199C; assay: cross-linking

- Kd [1]: 11 ± 0.9 µM
- binding result [2]: binds
- binding result [3]: binds
- binding result [4]: binds
- binding result [5]: binds
- binding result [6]: binds
- binding result [7]: binds
- binding result [8]: binds
- binding result [9]: binds
- binding result [10]: binds
- binding result [11]: binds
- binding result [12]: binds
- binding result [13]: binds
- binding result [14]: binds
B1: biotin-labeled CbpA (natural protein, E. coli, UniProt P36659 1-306, looked up)
chain: MELKDYYAIMGVKPTDDLKTIKTAYRRLARKYHPDVSKEPDAEARFKEVAEAWEVLSDEQRRAEYDQMWQHRNDPQFNRQFHHGDGQSFNAEDFDDIFSSIFGQHARQSRQRPATRGHDIEIEVAVFLEETLTEHKRTISYNLPVYNAFGMIEQEIPKTLNVKIPAGVGNGQRIRLKGQGTPGENGGPNGDLWLVIHIAPHPLFDIVGQDLEIVVPVSPWEAALGAKVTVPTLKESILLTIPPGSQAGQRLRVKGKGLVSKKQTGDLYAVLKIVMPPKPDENTAALWQQLADAQSSFDPRKDWGKA
modifications: biotin label (site not stated)

- binding result [15]: binds
- binding result [16]: binds
B2: CbpA J-domain A44C (domain or fragment, E. coli, UniProt P36659 1-78, looked up)
chain: MELKDYYAIMGVKPTDDLKTIKTAYRRLARKYHPDVSKEPDAECRFKEVAEAWEVLSDEQRRAEYDQMWQHRNDPQFN

- binding result [17]: binds
- binding result [18]: binds
B3: wild type CbpA J-domain fragment (residues 1-78) (domain or fragment, E. coli, UniProt P36659 1-78, looked up)
chain: B2 chain with C44A
